# B1: [68Ga]Ga-NOTA-anti-CD163 single domain antibody (VHH)
# VHH: DVQLVESGGGLVQPGGSLRLSCAASGITFSSYAVAWFRQASGKEREFVAFIGWDGDTTYYVDSVKGRFTISRDNAKNMVYLQMNSLKPDDTAIYYCARHKTLWRSSWDNRPVQYDYWGQGTQVTVSS
# modifications: p-SCN-Bn-NOTA randomly conjugated to lysines, chelating 68Ga
# notes: Radiolabeled form of the NOTA conjugate of the lead anti-CD163 sdAb; also called 68Gallium-labeled anti-CD163 single domain antibody; [68Ga]Ga-NOTA-anti-CD163 Nb
# B2: NOTA-conjugated anti-CD163 single domain antibody (VHH)
# VHH: B1 VHH
# modifications: p-SCN-Bn-NOTA randomly conjugated to lysines; 2.32±0.12 chelator per single domain antibody
# notes: The lead anti-CD163 sdAb (23766) conjugated to NOTA; also called NOTA-single domain antibody; NOTA-sdAb
# B3: CD163-targeting single domain antibody 23766 (VHH, not shown: small tags and cut ends)
# VHH: B1 VHH
# notes: Llama-derived sdAb cloned in the pMECS phage vector; also called sdAb 23766; sdAb23766
# Legend:
# [1] = molecular target: T1, recombinant human CD163 protein (hCD163-Avi-His6, U-Protein Express BV) (human, UniProt Q86VB7 42-1050, limits assumed, site-specifically biotinylated on the Avi tag in the ELISA format); assay: ELISA-format binding of radiolabeled sdAb to human CD163-Avi-His6 protein, read by gamma-counter
# T1 construct: Bought recombinant protein; also called hCD163 protein; recombinant hCD163; not shown: Avi tag and His6 tag
# T1 sequence (Q86VB7 42-1050 limits assumed): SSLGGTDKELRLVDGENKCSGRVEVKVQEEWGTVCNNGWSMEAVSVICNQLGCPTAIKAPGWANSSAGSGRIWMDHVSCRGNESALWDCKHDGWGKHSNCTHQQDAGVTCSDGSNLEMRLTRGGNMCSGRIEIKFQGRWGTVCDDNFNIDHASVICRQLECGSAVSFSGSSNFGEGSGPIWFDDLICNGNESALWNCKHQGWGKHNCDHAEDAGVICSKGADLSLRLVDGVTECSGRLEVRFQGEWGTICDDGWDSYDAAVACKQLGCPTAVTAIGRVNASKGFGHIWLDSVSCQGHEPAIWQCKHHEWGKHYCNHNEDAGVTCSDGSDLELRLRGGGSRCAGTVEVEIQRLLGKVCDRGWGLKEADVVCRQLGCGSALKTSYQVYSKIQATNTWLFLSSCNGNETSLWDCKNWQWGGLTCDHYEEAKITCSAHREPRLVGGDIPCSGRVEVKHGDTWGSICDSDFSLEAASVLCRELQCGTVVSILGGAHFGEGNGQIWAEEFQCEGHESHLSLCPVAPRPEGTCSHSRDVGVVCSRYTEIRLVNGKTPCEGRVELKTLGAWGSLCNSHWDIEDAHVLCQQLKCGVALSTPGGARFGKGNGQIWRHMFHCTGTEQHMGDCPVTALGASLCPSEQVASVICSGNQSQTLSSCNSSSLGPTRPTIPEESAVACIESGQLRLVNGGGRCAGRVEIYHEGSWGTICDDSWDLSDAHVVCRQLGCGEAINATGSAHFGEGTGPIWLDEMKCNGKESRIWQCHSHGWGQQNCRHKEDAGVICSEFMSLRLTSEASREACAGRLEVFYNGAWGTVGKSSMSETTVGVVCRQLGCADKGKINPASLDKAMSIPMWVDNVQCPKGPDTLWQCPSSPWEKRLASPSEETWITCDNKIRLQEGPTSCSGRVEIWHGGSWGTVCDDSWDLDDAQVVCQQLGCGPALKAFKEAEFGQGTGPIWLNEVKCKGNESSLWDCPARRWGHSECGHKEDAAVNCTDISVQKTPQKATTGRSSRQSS
# Text: (§1) FIG. 9. Determination of single domain antibody binding affinities after NOTA-conjugation via ELISA and a cell-binding study. (A) Binding of different concentrations of the ⁶⁸Gallium-labeled anti-CD163 single domain antibody (“[⁶⁸Ga]Ga-NOTA-anti-CD163 Nb”) to the human CD163-Avi-Hexahistine protein, compared to binding of a control irrelevant ⁶⁸Gallium-labeled single domain antibody (“[⁶⁸Ga]Ga-NOTA-Irr Nb”) (B) Single domain antibody binding of different concentrations of the […] anti-CD163 single domain antibody to HEK293T cells overexpressing mouse CD163.
# (§2) Affinity determination of the [⁶⁸Ga]Ga-NOTA-anti-CD163 sdAb via ELISA was performed as described in the previous paragraph. The radioactive sdAb binding on the hCD163-Avi-His6 protein was measured via a γ-counter.
# [2] = molecular target: T1, recombinant human CD163 protein …; assay: ELISA-format binding to hCD163-Avi-His6, bound radioactivity by gamma counter (FIG. 9A); radiolabeled; recombinant hCD163 protein (FIG. 9A)
# Text: as §1, §2
# [3] = molecular target: T1, recombinant human CD163 protein …; assay: binding to recombinant hCD163 protein (SPR per paragraph 101); NOTA-conjugated, not radiolabeled; recombinant hCD163 protein
# Procedure: (§3) The affinity of purified CD163-targeting sdAb and of the NOTA-conjugated anti-CD163 sdAb to recombinant hCD163 and mCD163 protein (U-Protein Express BV) was determined using the BIACORE-T200 (GE Healthcare, Freiburg, Germany). Surface plasmon resonance measurements were performed at 25° C. with HEPES buffered saline (HBS, 20 mM of HEPES pH 7.4, 150 mM of NaCl, 3.4 mM of EDTA 0.05% Tween-20) running buffer. The sdAbs were injected consecutively in 2-fold serial dilutions, from 250 to 1 nM. The association step was 100 s, the dissociation step was 200 s, and the two-step regeneration of 35 s at 30 μL·min-1, using 100 mM glycine at pH 3.0, was performed. Local curve fitting analysis was performed using the BIACORE evaluation software (GE Healthcare) by fitting the obtained sensorgrams to theoretical curves, assuming 1-1 binding geometries. For the determination of the equilibrium dissociation constant, the ratio of the association and dissociation rate constants were determined.
# [4] = molecular target: T1, recombinant human CD163 protein …; assay: SPR, recombinant hCD163 protein; mean ± S.D. of at least 3 independent experiments; mean ± S.D of at least 3 independent experiments (Table 1B), not the single value of Table 1A
# Procedure: as §3
# [5] = molecular target: T1, recombinant human CD163 protein …; assay: SPR (Biacore T200), recombinant hCD163 protein
# Procedure: as §3
# [6] = molecular target: T2, human CD163 on HEK293T cells overexpressing hCD163 (human, UniProt Q86VB7 42-1156); assay: flow cytometry on HEK293T hCD163+ cells
# T2 construct: whole, on cells; also called HEK hCD163+ cells; HEK293T hCD163+ cells
# T2 sequence (Q86VB7 42-1156): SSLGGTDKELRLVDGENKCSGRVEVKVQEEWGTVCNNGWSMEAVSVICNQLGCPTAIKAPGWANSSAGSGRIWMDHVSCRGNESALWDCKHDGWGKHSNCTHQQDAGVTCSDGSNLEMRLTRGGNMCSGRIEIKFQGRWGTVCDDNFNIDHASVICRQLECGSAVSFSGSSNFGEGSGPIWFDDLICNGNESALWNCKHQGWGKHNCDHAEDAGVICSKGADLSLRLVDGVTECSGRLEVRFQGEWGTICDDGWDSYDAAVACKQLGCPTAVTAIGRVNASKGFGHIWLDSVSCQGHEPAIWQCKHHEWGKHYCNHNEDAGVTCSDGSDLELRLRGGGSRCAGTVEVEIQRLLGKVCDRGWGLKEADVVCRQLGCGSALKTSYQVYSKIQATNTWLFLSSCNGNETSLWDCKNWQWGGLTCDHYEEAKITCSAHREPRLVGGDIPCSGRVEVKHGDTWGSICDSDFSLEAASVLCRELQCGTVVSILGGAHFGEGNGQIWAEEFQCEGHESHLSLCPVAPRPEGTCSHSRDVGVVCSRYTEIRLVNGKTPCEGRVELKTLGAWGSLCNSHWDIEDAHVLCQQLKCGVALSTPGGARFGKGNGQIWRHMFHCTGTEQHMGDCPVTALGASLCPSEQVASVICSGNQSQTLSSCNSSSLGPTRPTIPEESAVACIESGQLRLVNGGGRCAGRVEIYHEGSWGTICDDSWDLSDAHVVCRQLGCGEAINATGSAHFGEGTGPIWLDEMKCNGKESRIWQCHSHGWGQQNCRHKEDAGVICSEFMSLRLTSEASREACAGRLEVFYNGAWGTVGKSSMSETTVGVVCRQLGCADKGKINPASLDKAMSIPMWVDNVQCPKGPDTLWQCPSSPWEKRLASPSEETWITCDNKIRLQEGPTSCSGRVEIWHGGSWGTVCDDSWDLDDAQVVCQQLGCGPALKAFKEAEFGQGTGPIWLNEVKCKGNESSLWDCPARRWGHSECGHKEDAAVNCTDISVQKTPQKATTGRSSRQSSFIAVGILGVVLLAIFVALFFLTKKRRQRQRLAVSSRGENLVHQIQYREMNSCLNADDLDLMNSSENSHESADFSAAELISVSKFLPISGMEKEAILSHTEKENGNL
# Text: FIG. 2. Binding of the CD163-targeting single domain antibody (23766) to HEK293T cells overexpressing the hCD163 or mCD163 protein. A) Binding of different concentrations of the CD163-specific single domain antibody 23766 or an irrelevant single domain antibody (“Irr Nb”; R3b23) to HEK293T cells overexpressing (A), hCD163 or (B) mCD163 protein. Binding was detected as mean fluorescent intensity (MFI) via the C-terminal His-tag and a fluorescent labeled anti-His antibody using flow cytometry.
# Serial dilutions of the CD163-targeting sdAb and of the NOTA-conjugated anti-CD163 sdAb were incubated with 500.000 HEK293T cells overexpressing hCD163 or mCD163 in FACS buffer (HBSS (Gibco) supplemented with 1% FBS and 2 mM EDTA (Duchefa Biochemie, Haarlem, The Netherlands)) for 1 h at 4° C. NOTA-sdAb binding was detected by incubation of the cells with a PE tagged anti-VHH Ab (1:500 in FACS buffer, Genscript, Piscataway, NJ, USA) for 30 min at 4° C. […] Next, sdAb binding was detected by incubation of the cells with an Alexa Fluor®-488 tagged anti-HA antibody (1:1000 in FACS buffer, clone 16B12, Biolegend, San Diego, CA, USA) for 30 min at 4° C. Again, cells were washed once with FACS buffer. sdAb binding was determined using the FACS CANTO II analyser (BD Biosciences, Franklin Lakes, NJ, USA). The mean fluorescent intensity of sdAb binding was determined using FlowJo version 10.
# [7] = molecular target: T2, human CD163 on HEK293T cells …; assay: flow cytometry on HEK293T hCD163+ cells; mean ± S.D. of at least 3 independent experiments
# Procedure: Serial dilutions of the CD163-targeting sdAb and of the NOTA-conjugated anti-CD163 sdAb were incubated with 500.000 HEK293T cells overexpressing hCD163 or mCD163 in FACS buffer (HBSS (Gibco) supplemented with 1% FBS and 2 mM EDTA (Duchefa Biochemie, Haarlem, The Netherlands)) for 1 h at 4° C. NOTA-sdAb binding was detected by incubation of the cells with a PE tagged anti-VHH Ab (1:500 in FACS buffer, Genscript, Piscataway, NJ, USA) for 30 min at 4° C. Cells were washed once with FACS buffer. Next, sdAb binding was detected by incubation of the cells with an Alexa Fluor®-488 tagged anti-HA antibody (1:1000 in FACS buffer, clone 16B12, Biolegend, San Diego, CA, USA) for 30 min at 4° C. Again, cells were washed once with FACS buffer. sdAb binding was determined using the FACS CANTO II analyser (BD Biosciences, Franklin Lakes, NJ, USA). The mean fluorescent intensity of sdAb binding was determined using FlowJo version 10.
binder,measurement,setting,value
B1,EC50 (read off the curve),[1],~7 nM
same,Kd,[2],9.11 nM
B2,Kd,[3],1.55 nM
B3,Kd,[4],0.5 nM
same,Kd,[5],3.5 nM
same,Kd,[6],2.5 nM
same,Kd,[7],11.3 nM

# Source: US20260234282A1 (VIB VZW, published 2026)
